Laboratory results: patent publication US7374920B2, “Ginkgo biloba levopimaradiene synthase” (priority 2001, dated 2008)
Entries after “also recorded” stand apart in the source; their conditions may differ.

B1: Ser^61: Ginkgo biloba levopimaradiene synthase truncated at Ala^60-Ser^61; amino acid sequence SEQ.ID.NO:35 (protein, listed as Ginkgo biloba)
chain: MSAAETRPDQLPQEERFVSRLNADYHPAVWKDDFIDSLTSPNSHATSKSSVDETINKRIQTLVKEIQCMFQSMGDGETNPSAYDTAWVARIPSIDGSGAPQFPQTLQWILNNQLPDGSWGEECIFLAYDRVLNTLACLLTLKIWNKGDIQVQKGVEFVRKHMEEMKDEADNHRPSGFEVVFPAMLDEAKSLGLDLPYHLPFISQIHQKRQKKLQKIPLNVLHNHQTALLYSLEGLQDVVDWQEITNLQSRDGSFLSSPASTACVFMHTQNKRCLHFLNFVLSKFGDYVPCHYPLDLFERLWAVDTVERLGIDRYFKKEIKESLDYVYRYWDAERGVGWARCNPIPDVDDTAMGLRILRLHGYNVSSDVLENFRDEKGDFFCFAGQTQIGVTDNLNLYRCSQVCFPGEKIMEEAKTFTTNHLQNALAKNNAFDKWAVKKDLPGEVEYAIKYPWHRSMPRLEARSYIEQFGSNDVWLGKTVYKMLYVSNEKYLELAKLDFNMVQALHQKETQHIVSWWRESGFNDLTFTRQRPVEMYFSVAVSMFEPEFAACRIAYAKTSCLAVILDDLYDTHGSLDDLKLFSEAVRRWDISVLDSVRDNQLKVCFLGLYNTVNGFGKDGLKEQGRDVLGYLRKVWEGLLASYTKEAEWSAAKYVPTFNEYVENAKVSIALATVVLNSIFFTGELLPDYILQQVDLRSKFLHLVSLTGRLINDTKTYQAERNRGELVSSVQCYMRENPECTEEEALSHVYGIIDNALKELNWELANPASNAPLCVRRLLFNTARVMQLFYMYRDGFGISDKEMKDHVSRTLFDPVA
B2: Ala^2 (protein, listed as Ginkgo biloba)
chain: MAGVLFANLPCSLQLSPKVPFRQSTNILIPFHKRSSFGFNAQHCVRSHLRLRWNCVGIHASAAETRPDQLPQEERFVSRLNADYHPAVWKDDFIDSLTSPNSHATSKSSVDETINKRIQTLVKEIQCMFQSMGDGETNPSAYDTAWVARIPSIDGSGAPQFPQTLQWILNNQLPDGSWGEECIFLAYDRVLNTLACLLTLKIWNKGDIQVQKGVEFVRKHMEEMKDEADNHRPSGFEVVFPAMLDEAKSLGLDLPYHLPFISQIHQKRQKKLQKIPLNVLHNHQTALLYSLEGLQDVVDWQEITNLQSRDGSFLSSPASTACVFMHTQNKRCLHFLNFVLSKFGDYVPCHYPLDLFERLWAVDTVERLGIDRYFKKEIKESLDYVYRYWDAERGVGWARCNPIPDVDDTAMGLRILRLHGYNVSSDVLENFRDEKGDFFCFAGQTQIGVTDNLNLYRCSQVCFPGEKIMEEAKTFTTNHLQNALAKNNAFDKWAVKKDLPGEVEYAIKYPWHRSMPRLEARSYIEQFGSNDVWLGKTVYKMLYVSNEKYLELAKLDFNMVQALHQKETQHIVSWWRESGFNDLTFTRQRPVEMYFSVAVSMFEPEFAACRIAYAKTSCLAVILDDLYDTHGSLDDLKLFSEAVRRWDISVLDSVRDNQLKVCFLGLYNTVNGFGKDGLKEQGRDVLGYLRKVWEGLLASYTKEAEWSAAKYVPTFNEYVENAKVSIALATVVLNSIFFTGELLPDYILQQVDLRSKFLHLVSLTGRLINDTKTYQAERNRGELVSSVQCYMRENPECTEEEALSHVYGIIDNALKELNWELANPASNAPLCVRRLLFNTARVMQLFYMYRDGFGISDKEMKDHVSRTLFDPVA

Assay: in vitro enzymatic assay of levopimaradiene synthase constructs expressed in E. coli BL21(DE3)
Format: biochemical, Escherichia coli
Settings: for diterpene product on bacterial expression: E. coli BL21(DE3), soluble lysate fraction, 20 μM GGDP, overnight at 32° C., GC and GC/MS
Procedure: The desired plasmids were prepared by ligating the mutated gene insert into the similarly digested vectors pET32c(+) (Novagen; Madison, Wis.) and pRS426GAL (Hua, 2000), a multiple copy yeast expression vector. These plasmids was expressed in E. coli BL21(DE3) (Novagen; Madison, Wis.). E. coli cells were grown in Luria-Bertani medium supplemented with 100 μg/mL ampicillin at 37° C. with shaking to OD600 ˜0.6. The following parameters were tested: isopropyl 1-thio-β-D-galactopyranoside (IPTG) concentration (50, 100, 250, 500, and 1000 μM); and temperature and time (20° C. for 2, 3, 4, 6, 21 hours, 22° C. for 6, 8, 16, 19, 22, 45 hours, and 30° C. for 3, 6 hours). The following assay conditions were tested to obtain maximum diterpene product yield: 30 mM HEPES (N-2-hydroxyethylpiperazine-N′-[…]), pH 6.9, 7.2, 7.6, 8.0; 30 mM Tris (tris(hydroxymethyl)aminomethane hydrochloride), pH 7.4, 7.8, 8.2; 1, 5, 10% glycerol; 1, 3, 5, 10, 20 mM DTT (dithiothreitol); 20 mM β-mercaptoethanol; 2, 5, 8% Triton X-100; 5% Tween 80; 0, 2, 7.5, 20, 50 mM MgCl2; 0, 30, 500, 1000 μM MnCl2; 2, 10, 13.3, 20, 40, 80, 200 μM GGDP; and 23° C. and 32° C. assay temperatures.
Optimal soluble protein production and diterpene yield were obtained with the following conditions. Cell cultures were induced with 1 mM IPTG at 20° C. with shaking for 6 hours and lysed by sonication in 30 mM HEPES, pH 7.2, 5 mM DTT, and 5% glycerol. The soluble fraction of the lysate (100 mg/mL) was incubated with 20 μM GGDP in 30 mM HEPES, pH 7.2, 5 mM DTT, 5% glycerol, 2 mM MgCl2, and 500 μM MnCl2 overnight at 32° C.
All in vitro reactions were extracted 3× with hexane and dried over MgSO4. The reaction was further extracted twice with diethyl ether and dried over MgSO4. Thereafter, the crude lysate was suspended in 100 mM Tris, pH 8.0 containing 2.9 units/mg apyrase (a dephosphorylating agent) and 10 units/μL calf intestinal alkaline phosphatase, incubated at 30° C. for 3 hours, and extracted with diethyl ether as noted above (Croteau and Cane, 1985). The crude reaction mixtures were eluted over SiO2, concentrated, and analyzed by GC and GC/MS.
Gas chromatography spectra were obtained on a Hewlett Packard 6890 Series GC System equipped with an Rtx-5 capillary column (Restek, 30 m×0.25 mm i.d., 0.10 μm df). The following separation conditions and temperature program were employed: injector port 250° C., FID 250° C., split ratio 39:1, helium flow 20 cm/s (0.6 mL/min), 150° C. hold 5 min, increase to 250° C. (5° C./min), hold 5 min. GC/MS spectra were obtained on a Hewlett-Packard 5890A instrument with a 30-m DB-5 ms column (J&W Scientific Inc., 0.25 mm i.d., 0.10 μm df). The following separation conditions and temperature program were employed: injector port 280° C., transfer lines: 280° C., helium flow at 30 cm/s (1 mL/min) with splitless injection at 150° C. hold 3 min, increase to 250° C. (5° C./min), hold 5 min. Mass spectra (m/z 50 to 500) were obtained on a VG ZAB-HF reverse-geometry double-focusing instrument at 70 eV with an electron-impact ion source (200° C.). Accelerating voltage was set to 8 kV and the resolution was 1000 (10% valley).
The skilled artisan recognizes that lysis and assay conditions should be optimized. Examples of parameters that can be adjusted to optimize conditions include altering buffer, pH, reductant, reductant concentration, metal cofactors, cofactor concentrations, glycerol concentrations, substrate concentrations, and assay temperatures. […] Maximum soluble protein production and diterpene yield were obtained with the following conditions. Cell cultures were induced with 1 mM IPTG at 20° C. with shaking for 6 hours and lysed by sonication in 30 mM HEPES, pH 7.2, 5 mM DTT, and 5% glycerol. The soluble fraction of the lysate (100 mg/1 mL) was incubated with 20 μM GGDP in 30 mM HEPES, pH 7.2, 5 mM DTT, 5% glycerol, 2 mM MgCl2, and 500 μM MnCl2 overnight at 32° C. […]

Molecule | diterpene product on bacterial expression | turnover of GGDP (bacterial expression, highest expression levels) | diterpene product on bacterial expression (listed as full-length cDNA) | difference in activity between highest (Ser^61) and lowest (Ala^2) levels (bacterial expression)
B1 | produced levopimaradiene as the exclusive diterpene hydrocarbon; also recorded: provided enzymatic activity capable of cyclizing geranylgeranyl diphosphate to levopimaradiene | approximately 1% |  | 
B2 | produced levopimaradiene as the exclusive diterpene hydrocarbon |  | provided enzymatic activity capable of cyclizing geranylgeranyl diphosphate to levopimaradiene | approximately 80%
